The results in this text go back to patent US20020197617, “Aptamers as reagents for high throughput screening” (GILEAD SCIENCES, INC., published 2002).

For data set [1], the target named is T1, Wheat germ agglutinin (WGA) (Triticum vulgare, UniProt P10968 P10968:27-197).
T1 sequence: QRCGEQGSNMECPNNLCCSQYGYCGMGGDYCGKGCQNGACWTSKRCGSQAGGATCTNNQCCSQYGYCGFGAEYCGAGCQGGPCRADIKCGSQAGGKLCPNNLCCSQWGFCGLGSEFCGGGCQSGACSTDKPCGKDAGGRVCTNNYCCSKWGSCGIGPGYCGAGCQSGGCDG
Kind of data set: filter; 10 nM aptamer and 10 nM WGA, HBSMC pH 7.4, room temperature; displaced by (GlcNAc)2, (GlcNAc)3 and (GlcNAc)4, not by GlcNAc. The note with it: tags: EY Laboratories; chain copies: 2; label: 5'-32P. As to the method: Small molecule oligosaccharides were screened for their ability to compete with WGA aptamer 11.20 for binding to wheat germ agglutinin protein. The small molecule (or cold 11.20) competitors at varying concentrations were mixed with the 5′-32P end-labeled 11.20 ligand at room temperature. Then WGA was added to the mixture and allowed to equilibrate for 60 minutes at room temperature. The competition mixtures (90 μL volume) all had 32P end-labeled 11.20 at 10 nM, WGA at 10 nM and were in 25 mM Hepes, 137 mM NaCl, 2.7 mM KCl, 1 mM MgCl₂, 1 mM CaCl₂, 0.067% human serum albumin (HSA), at pH 7.4 (HBSMC). Aptamer bound to WGA was separated from free aptamer by filtration through pre-washed […] nitrocellulose membrane filters. Filters were washed with 5 mL HBSMC at room temperature. The filters were placed in tubes with scintillant and the radioactivity counted to quantitate the fraction of 32P end-labeled 11.20 bound at each competitor concentration.

In data set [2] the target is PDGF-BB (platelet-derived growth factor BB) (Homo sapiens, UniProt P01127 P01127:82-190). Kind of data set: 33-mer described previously (US 5,723,594); measurement conditions not stated. Conditions: tags: R&D Systems, carrier free lyophilized; chain copies: 2 (inferred, homodimer).
Chain of PDGF-BB (platelet-derived growth factor BB) (P01127 82-190, one chain of several): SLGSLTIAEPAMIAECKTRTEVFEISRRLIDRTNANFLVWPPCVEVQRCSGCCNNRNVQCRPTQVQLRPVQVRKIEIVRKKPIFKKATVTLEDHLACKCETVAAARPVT

B1: 11.20 (ssRNA)
RNA: GGGAAAAGCGAAUCAUACACAAGAUUGGUCGUACUGGACAGAGCCGUGGUAGAGGGAUUGGGACAAAGUGUCAGCUCCGCCAGAGACCAACCGAGAA
modifications: 2'-NH2 pyrimidines
Consider B1, for which the binding result in data set [1] is “binds”.

Broadly, the Kd is the free concentration of one partner at which half of the binding sites on the other are occupied at equilibrium, for simple one-to-one binding. Read a high Kd as lower affinity. In data set [2], CGGGCGCGTTCTTCGTGGTTACTTTTAGTCCCG (ssDNA) [20ta] returned a Kd of 0.05 nM.
